Assay results taken from patent US20190194358A1 (ARIZONA BOARD OF REGENTS A BODY CORPORATE OF THE STATE OF …, published 2019).
Ends that are not written are not given here.

Columns and labels:
[1] = molecular target: albumin; assay: SPR
[2] = molecular target: T1, transferrin (human, UniProt P02787 20-698); assay: SPR, transferrin immobilised, Kd from kinetics
T1 construct: also called TRF; pooled human transferrin (Sigma)
Excerpt: Flow rates and contact times are adjusted as necessary to provide the surface concentration of target desired for the intended application, and may vary by target. In general, for evaluating whether binding occurs, it is preferable to immobilize a relatively large quantity of target, and higher flow rates and/or longer contact times may be used. For determining kinetics, it is preferable to limit the amount of target immobilized so as to minimize rebinding and avidity effects, and lower flow rates and/or contact times may be used.

[3] = molecular target: T1, transferrin; assay: SPR (Biacore A-100), purified peptide at several concentrations, equilibrium
Excerpt: A Biacore A-100 Surface Plasmon Resonance (SPR) system was used to measure the binding response of each peptide to several different target proteins immobilized on a gold surface. The A-100 has four different flow cells and within each flow cell are five addressable spots. Therefore four different proteins and a negative control reference can be used per flow cell. […] Sensorgrams are collected from each immobilized protein, so a binding profile for each analyte versus each of the protein targets is generated for each injection. Target proteins were immobilized using a biotin capture approach in which a CM5 chip was activated using standard amine coupling chemistry and Neutravidin was covalently coupled to the chip. Each biotinylated protein was injected over a single spot and the amount of protein captured was measured. In this manner four proteins were immobilized per flow cell. In this example, the same four proteins were captured in all four flow cells for this experiment.

T1 sequence (P02787 20-698 limits assumed): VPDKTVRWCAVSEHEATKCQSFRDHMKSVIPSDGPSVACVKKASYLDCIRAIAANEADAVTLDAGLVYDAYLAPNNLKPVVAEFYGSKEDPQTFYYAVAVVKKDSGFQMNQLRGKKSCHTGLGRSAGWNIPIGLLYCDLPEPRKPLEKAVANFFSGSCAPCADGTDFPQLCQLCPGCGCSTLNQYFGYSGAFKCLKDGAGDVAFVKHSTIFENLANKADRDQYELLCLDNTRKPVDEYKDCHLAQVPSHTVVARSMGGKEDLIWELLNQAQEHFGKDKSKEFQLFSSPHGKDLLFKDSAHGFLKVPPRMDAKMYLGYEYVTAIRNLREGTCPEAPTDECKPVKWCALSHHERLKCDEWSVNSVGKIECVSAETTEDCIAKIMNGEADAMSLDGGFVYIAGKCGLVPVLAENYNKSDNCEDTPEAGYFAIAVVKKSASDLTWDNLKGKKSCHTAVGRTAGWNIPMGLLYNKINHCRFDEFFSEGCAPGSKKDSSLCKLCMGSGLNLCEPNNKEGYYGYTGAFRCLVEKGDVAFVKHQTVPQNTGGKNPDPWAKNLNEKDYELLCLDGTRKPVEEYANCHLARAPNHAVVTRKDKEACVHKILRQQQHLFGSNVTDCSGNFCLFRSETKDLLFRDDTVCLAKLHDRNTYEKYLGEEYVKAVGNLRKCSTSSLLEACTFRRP

B1: linker-optimized BP1/BP2 DNA-linked synbody (BP1 on the template strand, BP2 at position 13 from the 3' end of the variable strand) (designed binder)
peptide 1: GTEKGTSGWLKTGSC
peptide 2: EGEWTEGKLSLRGSC
modifications: not fully specified (some residues); cysteine pairing not given here; also: DNA strands hybridised
notes: The two peptide-DNA conjugates are held together by hybridisation of the DNA strands; also called Gal80 synbody; BP1-BP2 containing synbody
Kd relative to the Kd for gal80 (fold) [1]: > 1000 fold

B2: synbody comprising TRF-26 and TRF-23 (Example 9, lysine-linked) (designed binder)
peptide 1: AHKVVPQRQIRHAYNRYGSG
peptide 2: FRGWAHIFFGPHVIYRGGSG
modifications: not fully specified (bridges); also: C-termini joined to alpha or epsilon amines of branching Lys, orientation not given here, followed by C-terminal Cys, Gly or Ala, not given here which
notes: probably the same construct family as SYN23-26
Kd [2]: 0.15 µM

B3: TRF101 (peptide)
peptide: ARDLLIQKNSGQDVDHRGSC
notes: Screened unpurified, then resynthesised and HPLC purified
Kd [3]: 78.9 µM
